Drawing on patent US20140087995A1 (published 2014), this text covers IC50 for seven molecules.

T1: human amylin receptor (human, UniProt P30988 25-474; O60896 24-148, limits assumed)
T1 construct: whole, on cells; Calcitonin receptor plus RAMP-3 gives the amylin 3(a) receptor; membranes of Amylin 3(a)/CRE-luc cells were used; also called hAmylin-R; hAmylinR
T1 sequence (looked up) 1: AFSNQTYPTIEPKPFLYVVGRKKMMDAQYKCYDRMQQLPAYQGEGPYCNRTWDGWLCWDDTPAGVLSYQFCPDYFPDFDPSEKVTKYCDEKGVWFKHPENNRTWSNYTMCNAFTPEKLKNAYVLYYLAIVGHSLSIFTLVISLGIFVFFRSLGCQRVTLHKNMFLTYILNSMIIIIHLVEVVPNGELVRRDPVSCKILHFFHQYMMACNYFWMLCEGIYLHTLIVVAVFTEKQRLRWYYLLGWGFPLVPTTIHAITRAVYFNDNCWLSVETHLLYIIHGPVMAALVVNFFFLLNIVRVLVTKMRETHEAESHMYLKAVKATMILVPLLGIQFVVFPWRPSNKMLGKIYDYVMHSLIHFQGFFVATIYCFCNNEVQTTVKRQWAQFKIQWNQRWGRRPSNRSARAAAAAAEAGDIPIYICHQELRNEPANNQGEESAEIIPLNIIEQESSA
T1 sequence (looked up) 2: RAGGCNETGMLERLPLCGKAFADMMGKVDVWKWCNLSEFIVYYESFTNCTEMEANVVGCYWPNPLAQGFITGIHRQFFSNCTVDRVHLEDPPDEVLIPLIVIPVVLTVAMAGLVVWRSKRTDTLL

B1: N^ε1-[(4S)-4-carboxy-4-(19-carboxynonadecanoylamino)butanoyl]-[Asp14,Arg17,Pro21,Pro27,Pro34,Glu35]-h-amylin (peptide)
peptide: K([γGlu-C20 diacid])CNTATCATQRLADFLRHSSPNFGAIPSSTNVGPETY-NH2
modifications: disulfide 2-7; N-terminus assumed
SMILES: CC[C@H](C)[C@H](NC(=O)[C@H](C)NC(=O)CNC(=O)[C@H](Cc1ccccc1)NC(=O)[C@H](CC(N)=O)NC(=O)[C@@H]1CCCN1C(=O)[C@H](CO)NC(=O)[C@H](CO)NC(=O)[C@H](Cc1c[nH]cn1)NC(=O)[C@H](CCCNC(=N)N)NC(=O)[C@H](CC(C)C)NC(=O)[C@H](Cc1ccccc1)NC(=O)[C@H](CC(=O)O)NC(=O)[C@H](C)NC(=O)[C@H](CC(C)C)NC(=O)[C@H](CCCNC(=N)N)NC(=O)[C@H](CCC(N)=O)NC(=O)[C@@H](NC(=O)[C@H](C)NC(=O)[C@@H]1CSSC[C@H](NC(=O)[C@@H](N)CCCCNC(=O)CC[C@H](NC(=O)CCCCCCCCCCCCCCCCCCC(=O)O)C(=O)O)C(=O)N[C@@H](CC(N)=O)C(=O)N[C@@H]([C@@H](C)O)C(=O)N[C@@H](C)C(=O)N[C@@H]([C@@H](C)O)C(=O)N1)[C@@H](C)O)C(=O)N1CCC[C@H]1C(=O)N[C@@H](CO)C(=O)N[C@@H](CO)C(=O)N[C@H](C(=O)N[C@@H](CC(N)=O)C(=O)N[C@H](C(=O)NCC(=O)N1CCC[C@H]1C(=O)N[C@@H](CCC(=O)O)C(=O)N[C@H](C(=O)N[C@@H](Cc1ccc(O)cc1)C(N)=O)[C@@H](C)O)C(C)C)[C@@H](C)O
notes: also called 14D, 17R, 21P, 27P, 34P, 35E
B2: N^ε1-[(4S)-4-carboxy-4-(19-carboxynonadecanoylamino)butanoyl]-[Glu14,Arg17,Pro21,Pro27,Arg34,Glu35]-h-amylin (peptide)
peptide: K([γGlu-C20 diacid])CNTATCATQRLAEFLRHSSPNFGAIPSSTNVGRETY-NH2
modifications: disulfide 2-7; N-terminus assumed
SMILES: CC[C@H](C)[C@H](NC(=O)[C@H](C)NC(=O)CNC(=O)[C@H](Cc1ccccc1)NC(=O)[C@H](CC(N)=O)NC(=O)[C@@H]1CCCN1C(=O)[C@H](CO)NC(=O)[C@H](CO)NC(=O)[C@H](Cc1c[nH]cn1)NC(=O)[C@H](CCCNC(=N)N)NC(=O)[C@H](CC(C)C)NC(=O)[C@H](Cc1ccccc1)NC(=O)[C@H](CCC(=O)O)NC(=O)[C@H](C)NC(=O)[C@H](CC(C)C)NC(=O)[C@H](CCCNC(=N)N)NC(=O)[C@H](CCC(N)=O)NC(=O)[C@@H](NC(=O)[C@H](C)NC(=O)[C@@H]1CSSC[C@H](NC(=O)[C@@H](N)CCCCNC(=O)CC[C@H](NC(=O)CCCCCCCCCCCCCCCCCCC(=O)O)C(=O)O)C(=O)N[C@@H](CC(N)=O)C(=O)N[C@@H]([C@@H](C)O)C(=O)N[C@@H](C)C(=O)N[C@@H]([C@@H](C)O)C(=O)N1)[C@@H](C)O)C(=O)N1CCC[C@H]1C(=O)N[C@@H](CO)C(=O)N[C@@H](CO)C(=O)N[C@H](C(=O)N[C@@H](CC(N)=O)C(=O)N[C@H](C(=O)NCC(=O)N[C@@H](CCCNC(=N)N)C(=O)N[C@@H](CCC(=O)O)C(=O)N[C@H](C(=O)N[C@@H](Cc1ccc(O)cc1)C(N)=O)[C@@H](C)O)C(C)C)[C@@H](C)O
notes: also called 14E, 17R, 21P, 27P, 34R, 35E
B3: N^ε1-[(4S)-4-carboxy-4-(19-carboxynonadecanoylamino)butanoyl]-[Glu14,Arg17,Pro21,Pro27,Pro34,Glu35]-h-amylin (peptide)
peptide: K([γGlu-C20 diacid])CNTATCATQRLAEFLRHSSPNFGAIPSSTNVGPETY-NH2
modifications: disulfide 2-7; N-terminus assumed
SMILES: CC[C@H](C)[C@H](NC(=O)[C@H](C)NC(=O)CNC(=O)[C@H](Cc1ccccc1)NC(=O)[C@H](CC(N)=O)NC(=O)[C@@H]1CCCN1C(=O)[C@H](CO)NC(=O)[C@H](CO)NC(=O)[C@H](Cc1c[nH]cn1)NC(=O)[C@H](CCCNC(=N)N)NC(=O)[C@H](CC(C)C)NC(=O)[C@H](Cc1ccccc1)NC(=O)[C@H](CCC(=O)O)NC(=O)[C@H](C)NC(=O)[C@H](CC(C)C)NC(=O)[C@H](CCCNC(=N)N)NC(=O)[C@H](CCC(N)=O)NC(=O)[C@@H](NC(=O)[C@H](C)NC(=O)[C@@H]1CSSC[C@H](NC(=O)[C@@H](N)CCCCNC(=O)CC[C@H](NC(=O)CCCCCCCCCCCCCCCCCCC(=O)O)C(=O)O)C(=O)N[C@@H](CC(N)=O)C(=O)N[C@@H]([C@@H](C)O)C(=O)N[C@@H](C)C(=O)N[C@@H]([C@@H](C)O)C(=O)N1)[C@@H](C)O)C(=O)N1CCC[C@H]1C(=O)N[C@@H](CO)C(=O)N[C@@H](CO)C(=O)N[C@H](C(=O)N[C@@H](CC(N)=O)C(=O)N[C@H](C(=O)NCC(=O)N1CCC[C@H]1C(=O)N[C@@H](CCC(=O)O)C(=O)N[C@H](C(=O)N[C@@H](Cc1ccc(O)cc1)C(N)=O)[C@@H](C)O)C(C)C)[C@@H](C)O
notes: also called 14E, 17R, 21P, 27P, 34P, 35E
B4: N^ε1-[(4S)-4-carboxy-4-(19-carboxynonadecanoylamino)butanoyl]-[Glu14,Arg17,Pro21,Pro27,Pro34,Pro37]-h-amylin (peptide)
peptide: K([γGlu-C20 diacid])CNTATCATQRLAEFLRHSSPNFGAIPSSTNVGPNTP-NH2
modifications: disulfide 2-7; N-terminus assumed
SMILES: CC[C@H](C)[C@H](NC(=O)[C@H](C)NC(=O)CNC(=O)[C@H](Cc1ccccc1)NC(=O)[C@H](CC(N)=O)NC(=O)[C@@H]1CCCN1C(=O)[C@H](CO)NC(=O)[C@H](CO)NC(=O)[C@H](Cc1c[nH]cn1)NC(=O)[C@H](CCCNC(=N)N)NC(=O)[C@H](CC(C)C)NC(=O)[C@H](Cc1ccccc1)NC(=O)[C@H](CCC(=O)O)NC(=O)[C@H](C)NC(=O)[C@H](CC(C)C)NC(=O)[C@H](CCCNC(=N)N)NC(=O)[C@H](CCC(N)=O)NC(=O)[C@@H](NC(=O)[C@H](C)NC(=O)[C@@H]1CSSC[C@H](NC(=O)[C@@H](N)CCCCNC(=O)CC[C@H](NC(=O)CCCCCCCCCCCCCCCCCCC(=O)O)C(=O)O)C(=O)N[C@@H](CC(N)=O)C(=O)N[C@@H]([C@@H](C)O)C(=O)N[C@@H](C)C(=O)N[C@@H]([C@@H](C)O)C(=O)N1)[C@@H](C)O)C(=O)N1CCC[C@H]1C(=O)N[C@@H](CO)C(=O)N[C@@H](CO)C(=O)N[C@H](C(=O)N[C@@H](CC(N)=O)C(=O)N[C@H](C(=O)NCC(=O)N1CCC[C@H]1C(=O)N[C@@H](CC(N)=O)C(=O)N[C@H](C(=O)N1CCC[C@H]1C(N)=O)[C@@H](C)O)C(C)C)[C@@H](C)O
notes: also called 14E, 17R, 21P, 27P, 34P, 37P
B5: N^ε1-[(4S)-4-carboxy-4-(19-carboxynonadecanoylamino)butanoyl]-[Glu14,Arg17,Pro21,Pro27,Pro34,Arg35]-h-amylin (peptide)
peptide: K([γGlu-C20 diacid])CNTATCATQRLAEFLRHSSPNFGAIPSSTNVGPRTY-NH2
modifications: disulfide 2-7; N-terminus assumed
SMILES: CC[C@H](C)[C@H](NC(=O)[C@H](C)NC(=O)CNC(=O)[C@H](Cc1ccccc1)NC(=O)[C@H](CC(N)=O)NC(=O)[C@@H]1CCCN1C(=O)[C@H](CO)NC(=O)[C@H](CO)NC(=O)[C@H](Cc1c[nH]cn1)NC(=O)[C@H](CCCNC(=N)N)NC(=O)[C@H](CC(C)C)NC(=O)[C@H](Cc1ccccc1)NC(=O)[C@H](CCC(=O)O)NC(=O)[C@H](C)NC(=O)[C@H](CC(C)C)NC(=O)[C@H](CCCNC(=N)N)NC(=O)[C@H](CCC(N)=O)NC(=O)[C@@H](NC(=O)[C@H](C)NC(=O)[C@@H]1CSSC[C@H](NC(=O)[C@@H](N)CCCCNC(=O)CC[C@H](NC(=O)CCCCCCCCCCCCCCCCCCC(=O)O)C(=O)O)C(=O)N[C@@H](CC(N)=O)C(=O)N[C@@H]([C@@H](C)O)C(=O)N[C@@H](C)C(=O)N[C@@H]([C@@H](C)O)C(=O)N1)[C@@H](C)O)C(=O)N1CCC[C@H]1C(=O)N[C@@H](CO)C(=O)N[C@@H](CO)C(=O)N[C@H](C(=O)N[C@@H](CC(N)=O)C(=O)N[C@H](C(=O)NCC(=O)N1CCC[C@H]1C(=O)N[C@@H](CCCNC(=N)N)C(=O)N[C@H](C(=O)N[C@@H](Cc1ccc(O)cc1)C(N)=O)[C@@H](C)O)C(C)C)[C@@H](C)O
notes: also called 14E, 17R, 21P, 27P, 34P, 35R
B6: N^ε1-[(4S)-4-carboxy-4-(19-carboxynonadecanoylamino)butanoyl]-[Glu14,Arg17,Pro21,Pro27,Pro34,His35]-h-amylin (peptide)
peptide: K([γGlu-C20 diacid])CNTATCATQRLAEFLRHSSPNFGAIPSSTNVGPHTY-NH2
modifications: disulfide 2-7
notes: also called 14E, 17R, 21P, 27P, 34P, 35H
B7: N^ε1-[(4S)-4-carboxy-4-(19-carboxynonadecanoylamino)butanoyl]-[Glu14,Arg17,Pro21,Pro27,His34,Glu35]-h-amylin (peptide)
peptide: K([γGlu-C20 diacid])CNTATCATQRLAEFLRHSSPNFGAIPSSTNVGHETY-NH2
modifications: disulfide 2-7; N-terminus assumed
SMILES: CC[C@H](C)[C@H](NC(=O)[C@H](C)NC(=O)CNC(=O)[C@H](Cc1ccccc1)NC(=O)[C@H](CC(N)=O)NC(=O)[C@@H]1CCCN1C(=O)[C@H](CO)NC(=O)[C@H](CO)NC(=O)[C@H](Cc1c[nH]cn1)NC(=O)[C@H](CCCNC(=N)N)NC(=O)[C@H](CC(C)C)NC(=O)[C@H](Cc1ccccc1)NC(=O)[C@H](CCC(=O)O)NC(=O)[C@H](C)NC(=O)[C@H](CC(C)C)NC(=O)[C@H](CCCNC(=N)N)NC(=O)[C@H](CCC(N)=O)NC(=O)[C@@H](NC(=O)[C@H](C)NC(=O)[C@@H]1CSSC[C@H](NC(=O)[C@@H](N)CCCCNC(=O)CC[C@H](NC(=O)CCCCCCCCCCCCCCCCCCC(=O)O)C(=O)O)C(=O)N[C@@H](CC(N)=O)C(=O)N[C@@H]([C@@H](C)O)C(=O)N[C@@H](C)C(=O)N[C@@H]([C@@H](C)O)C(=O)N1)[C@@H](C)O)C(=O)N1CCC[C@H]1C(=O)N[C@@H](CO)C(=O)N[C@@H](CO)C(=O)N[C@H](C(=O)N[C@@H](CC(N)=O)C(=O)N[C@H](C(=O)NCC(=O)N[C@@H](Cc1c[nH]cn1)C(=O)N[C@@H](CCC(=O)O)C(=O)N[C@H](C(=O)N[C@@H](Cc1ccc(O)cc1)C(N)=O)[C@@H](C)O)C(C)C)[C@@H](C)O
notes: also called 14E, 17R, 21P, 27P, 34H, 35E

Numbered stars: 1 amine (or outer) side, 2 acyl side, 3 side chain; on linkers, the order of the positions; unused ones are H or OH. Bridge positions count the residues as written; N and C are the ends. Side chains are listed from the residue outwards. Ends that are not written are not given here. * marks the point of attachment. C20 diacid = O=C(O)CCCCCCCCCCCCCCCCCCC(=O)*; γGlu = O=C(O)[C@H](CCC(=O)[*:2])N[*:1]

For the assay, the target named is T1, human amylin receptor. Description: SPA competition binding, displacement of 125I-rat amylin from membranes with human amylin 3(a) receptor (Assay V). An outline of the steps: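 One-site competition analysis of SPA counts yielded IC₅₀ as a measure of affinity. Membranes were at 35 ng/μL final; incubation was 120 min at 25° C, pH 7.4.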
(In general: In a radioligand displacement assay an active substance lowers the binding of a labelled ligand.)
The molecule B1 came in with an IC50 of 196 pM.

B2: the IC50 amounted to 232 pM.

In turn, B3 yielded an IC50 of 140 pM.

Turning to B4, the IC50 came out at 214 pM.

The molecule B5 registered an IC50 of 163 pM.

Take B6: the concentration for half-maximal inhibition (IC50) stood at 179 pM.

B7 displayed a half-maximal inhibitory concentration (IC50) of 387 pM.

For orientation: IC50 means the concentration that gives 50% inhibition.
